13 molecules from patent publication US20240294650A1 (Alector, published 2024) can be followed below.

T1: recombinant cynomolgus MerTK extracellular domain (cynomolgus, UniProt Q12866 21-505 (human entry))
T1 construct: also called cyno MerTK ECD; not shown: polyHis or TEVS/Thrombin/murine IgG2a-Fc tag
T1 chain: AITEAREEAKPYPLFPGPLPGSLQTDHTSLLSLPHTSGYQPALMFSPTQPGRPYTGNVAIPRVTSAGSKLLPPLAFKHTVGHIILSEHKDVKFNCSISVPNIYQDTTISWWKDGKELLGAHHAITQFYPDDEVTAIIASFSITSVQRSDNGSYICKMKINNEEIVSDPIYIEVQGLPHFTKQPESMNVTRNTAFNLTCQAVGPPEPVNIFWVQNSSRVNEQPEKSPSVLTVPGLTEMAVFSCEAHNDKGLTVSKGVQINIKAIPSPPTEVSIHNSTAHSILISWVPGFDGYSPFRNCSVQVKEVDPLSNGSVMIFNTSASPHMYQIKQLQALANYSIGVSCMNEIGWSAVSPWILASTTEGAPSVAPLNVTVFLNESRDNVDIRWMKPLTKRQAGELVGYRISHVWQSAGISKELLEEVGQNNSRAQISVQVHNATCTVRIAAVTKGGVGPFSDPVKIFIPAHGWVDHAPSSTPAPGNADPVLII

T2: recombinant human MerTK extracellular domain (human, UniProt Q12866 21-505)
T2 construct: also called human MerTK ECD; not shown: polyHis or TEVS/Thrombin/murine IgG2a-Fc tag
T2 sequence: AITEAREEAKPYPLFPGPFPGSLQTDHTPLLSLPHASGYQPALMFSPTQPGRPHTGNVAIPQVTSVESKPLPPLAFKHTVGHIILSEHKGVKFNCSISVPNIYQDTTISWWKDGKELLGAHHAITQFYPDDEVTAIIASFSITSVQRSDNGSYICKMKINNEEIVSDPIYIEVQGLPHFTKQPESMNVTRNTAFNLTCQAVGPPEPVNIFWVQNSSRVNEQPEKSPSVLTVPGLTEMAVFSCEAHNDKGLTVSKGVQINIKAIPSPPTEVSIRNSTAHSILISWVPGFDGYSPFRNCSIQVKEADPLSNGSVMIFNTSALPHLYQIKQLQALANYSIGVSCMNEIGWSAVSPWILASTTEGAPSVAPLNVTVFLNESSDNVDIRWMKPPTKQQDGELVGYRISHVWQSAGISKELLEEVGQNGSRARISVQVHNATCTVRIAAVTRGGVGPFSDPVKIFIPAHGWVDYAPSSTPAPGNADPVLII

B1: MTK-219 (antibody, human IgG1, V domains shown)
VH: QVQLQQSGADLMKPGASVKLSCKATGNTFTGYWIEWVKQRPGHGLEWIGEILTGSGSTNYNERFKGKATFTADTSSNTAYMQLSSLTTEDSAIYYCAGSYFTNSWFPYWGQGSLVTVSA
VL: DIVLTQSPASLAVSLGQRATISCRASESVDSYGNSFMHWYQQKPGQPPKLLIYRAYTLESGIPARFSGSGSRTDFTLTINPVEADDVATYYCQQSNEDPRTFGGGTKLEIK
B2: MTK-222 (antibody, human IgG1, V domains shown)
VH: B1 VH with N27Y, T58S, R63K, T74S, Y80F, F101Y, T102S
VL: B1 VL with A9V, N34S, Y56S, T57S, A84T
B3: MTK-211 (antibody, human IgG1, V domains shown)
VH: QVQLQQSGAELMKPGASVKLSCKATGYTFTGYWIEWVKQRPGHGLEWIGEILPGSGGSNYNEKFKGKATFTADTSSNTAYIQLSSLTTEDSAIYCCARGEPSYFSDAGFAYWGQGTLVTVSA
VL: QIVLTQSPAVMSASPGEKVTMTCSASSSITYMHWYQQKPGTSPKRWIYDTSKLASGVPARFSGSGSGTSYFLTISSMEAEDVATYYCHQRSTYPYTFGGGTKLEIM
B4: MTK-215 (antibody, human IgG1, V domains shown)
VH: EVQLVESGGGLVKPGGSLKLSCAASGFIFSDYGMHWVRQAPEKGLEWVAYISSGSSTIYYGDTVKGRFTISRDNAKNTLFLQMTSLRSEDTAMYYCAKGGRYGAMDYWGHGTSVTVSS
VL: DIVLTQSPATLSVTPGDSVSLSCRASQSISNNLHWYQQKSHESPRLLIKNPSQSISGIPSRFGARGSGTDFTLIINSVETEDLGVYFCQQSNSWPFTFGSGTKLEIK
B5: MTK-223 (antibody, human IgG1, V domains shown)
VH: DVQLQESGPGLVKPSQSLSLTCSVTGYSITSGYYWNWIRQFPGNKLEWMGYISYDGTNNYNPSLKNRISITRDTSENQFFLKLNSVTTEDTATYFCVRGAGYWGQGTTLTVSS
VL: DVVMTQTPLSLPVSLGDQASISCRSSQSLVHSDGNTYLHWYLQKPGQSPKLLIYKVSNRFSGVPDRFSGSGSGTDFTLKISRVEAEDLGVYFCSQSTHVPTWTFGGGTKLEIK
B6: MTK-231 (antibody, human IgG1, V domains shown)
VH: B5 VH with N58Y, N61H, E76K, K82T, Y94F, F95Y, V97T, A100G, T108S, L109V
VL: DVVMTQTPLSLPVSLGDQASISCRSSQSLVHSDGNTYLHWYLQKPGQSPKLLIYKVSNRFSGVPDRFSGSGSGTDFTLKISRLEAEDLGIYFCSQTTHIPLTFGSGTKLEIK
B7: MTK-225 (antibody, human IgG1, V domains shown)
VH: EVQLQQSGPELVKPGASVKIFCKASGYTFTAYNMDWVKQSHGKSLEWIGDINPNNGGTIYNQKFKGKATLTVDKSSSTAYMELRSLTSEDTAVYYCARRRRYGNTYYWYFDVWGTGTTVTVSS
VL: DIQMTQSPASLSVSVGETVTITCRASENIYSSLAWYQQKQGKSPQLLVYAATNLADGVPSRFSGSGSGTQFYLKINGLQSEDFGSYYCQHFWGTSYTFGGGTKLEIK
B8: MTK-220 (antibody, V domains shown)
VH: EVQLVESGGGLVKPGGSLKLSCAASGFTFSDYGMHWVRQAPEKGLEWVAFISGGSGTIYYEDTVKGRFTISRDNAKNTLFLQMTSLRSEDTAMYYCTRGGNYFDYWGQGTTLTVSS
VL: NIMLTQSPSSLAVSAGEKVTMTCKSSQSVLYSSNQKNYLAWYQQKPGQSPKLLIYWASTRESGVPDRFTGSGSGTDFTLTISNVQAEDLAVYYCHQYFSSWTFGGGTKLEIK
B9: MTK-202 (antibody, human IgG1, V domains shown)
VH: EVQLVESGGGLVKPGGSLKLSCAASGFTFSDFGMHWVRQVPEKGLEWVAFISGGSNTIYYTDTVKGRFTISRDNAKNTLFLQMTSLRSEDTAMYYCVRNGNSFAYWGQGTLVTVSA
VL: B8 VL with L4M, T22N, V84I, V91I, S99F
B10: MTK-204 (antibody, human IgG1, V domains shown)
VH: B8 VH with F50Y, G53S, S55T, G56S, T97A, N101L, Y102L
VL: B8 VL with L4M, T22S, Y55Q, G74E, S82R, N83S
B11: MTK-229 (antibody, human IgG1, V domains shown)
VH: QVQLQQSGPELVKPGASVKISCKASGYEFSRSWMNWVKQRPGKGLEWIGRIYPGDGDTNYKGKLKGQATLTADKSSSTAYMQLSSLTFEDSAVYFCARGGGYYYDSRYEGFVYWGQGTVVTVSA
VL: QIVLTQSPAIMSASPGEEVTMTCSASSSVSYMHWYQQKSGTSPKRWIYDTSKLASGVSGRFSGSGSGTSYSLTISSMEAEDAATYYCQQWSSNPPITFGAGTKLELK
B12: MTK-207 (antibody, human IgG1, V domains shown)
VH: QVQLKESGPGLVAPSQSLSITCTVSGISLTSYGVSWVRQPPGKGLEWLGIIWGDGSTNYHSALISRLSISKDNSKSQVFLKLNSLQTDDTATYYCAKGRYGNYEDWYFDVWGTGTTVTVSS
VL: DIQMTQSPASLSASVGETVTITCRASGNIHNYLAWYQQKQGKSPQLLVYNAKTLAAGVPSRFSGSGSGTQYSLKINSLQPEDFGSYYCQHFWSIPLTFGAGTKLELK
B13: MTK-216 (antibody, human IgG1, V domains shown)
VH: B8 VH with G53S, G56T, E61A, F80I, M93I, N101F, Y102H, F103L
VL: B8 VL with N1S, L4M, T22G, S33A, K36Q, P50L, N83S

Changes are numbered by the printed parent chain.

One test has as its target T1, recombinant cynomolgus MerTK …. As to the kind of experiment: SPR Carterra LSA. The method, then:
(§1) Binding kinetics of anti-MerTK IgG1 antibodies of the present disclosure to human, cyno, and murine MerTK were evaluated using a Carterra LSA instrument (Carterra, Salt Lake City, UT). […] A HC200M sensor chip (Carterra) was activated using the single channel flow cell with a 7-minute injection of a 1:1:1 mixture of 100 mM MES pH 5.5, 100 mM sulfo-NHS, 400 mM EDC (all reconstituted in MES pH 5.5; 100 μl of each mixed in vial immediately before running assay). After switching to the multi-channel array flow cell, the antibodies were injected over the activated chip in three 96-spot arrays for 10 minutes each. The remaining unconjugated active groups on the chip were then blocked by injecting 1M Ethanolamine pH 8.5 (Carterra) for 7 minutes using the single channel flow cell. The resulting sensor chip contained three spots for each antibody, at three different densities. Two independent experiments were performed as follows, resulting in an N of between one and six determinations for each antibody. Spots that yielded less than 25 RU of analyte binding were excluded from further analysis.
(§2) After priming with running buffer (HBS-TE, Carterra) with 0.5 mg/ml BSA (Sigma), the immobilized anti-MerTK antibodies were tested for their ability to bind to several forms of recombinant MerTK extracellular domain, including human, cynomolgus, and mouse orthologs as described above. Estimates of affinity were generated by injecting each analyte over the entire antibody array using the single channel flow cell. MerTK analytes were diluted with running buffer, in a series of six, three-fold serial dilutions starting from 1 μM for human and cynomolgus MerTK, and 600 nM for mouse MerTK. Analytes were injected for 5 minutes, and dissociation was followed for 10 minutes. After each analyte injection, antibodies were regenerated with either Protein A/G Elution Buffer (Thermo) with 1M NaCl (Teknova), or with 10 mM Glycine pH 2.5. Three buffer blanks were run between each series (one species per series). Data were processed and analyzed using NextGenKIT high-throughput kinetics analysis software (Carterra).
With B1, the “Ratio of KD for Cynomolgus vs Human MerTK” value (“Ratio of KD for Cynomolgus” for short) was 1.9 ratio.
On to B2, for which the “Ratio of KD for Cynomolgus” value is 1 ratio.
With B3, the “Ratio of KD for Cynomolgus” value was determined as 1.1 ratio.
Same read-out and setting: the value for B4 was 4.3 ratio; that for B5 was 2.5 ratio; that for B6 was 1.8 ratio.
Still for that read-out and setting: the value for B7 was 1.5 ratio.
Take B8: the “Ratio of KD for Cynomolgus” value is 2.7 ratio.
With B9, the “Ratio of KD for Cynomolgus” value turned out to be 4.8 ratio.
Turning to B10, the “Ratio of KD for Cynomolgus” value amounted to 2.8 ratio.
Turning to B11, the “Ratio of KD for Cynomolgus” value came out at 2.9 ratio.

The next test shares this target. As to the kind of experiment: SPR Carterra LSA, Ab immobilised. The protocol: as §1, §2
On to B1, for which the Kd amounted to 830 nM.
Consider B2, for which the Kd amounted to 130 nM.
Regarding B3, the Kd was 1.4 nM.
For B4, the Kd was 1600 nM.
In the case of B5, the Kd amounted to 190 nM.
In the case of B6, the Kd amounted to 48 nM.
As to B7, the Kd worked out at 80 nM.
B8: the Kd is 410 nM.
With B9, the Kd was 160 nM.
With B10, the Kd worked out at 680 nM.
As to B11, the Kd came to 52 nM.

A further test has as its target T2, recombinant human MerTK extracellular …. Nature of the test: SPR Carterra LSA, Ab immobilised. The method, then: as §1, §2
B1: the Kd stood at 440 nM.
With B2, the Kd was 130 nM.
For B3, the Kd was found to be 1.3 nM.
In the case of B12, the Kd was found to be 52 nM.
Turning to B4, the Kd came to 370 nM.
With B5, the Kd amounted to 75 nM.
B6: the Kd worked out at 26 nM.
In the case of B7, the Kd was determined as 52 nM.
Take B8: the Kd was determined as 150 nM.
Same read-out and setting: as for B9, the figure is 33 nM; as for B10, 240 nM.
For the molecule B13, the Kd was determined as 41 nM.
As for B11, the Kd was 18 nM.
